In PMC3085348 (European journal of immunology, 2011):

B1: Fab 3A3 (Fab, V domains shown)
VH: QVQLQESGGGLVKPGGSLRLSCAASGFTFSSYSMNWVRQAPGKGLEWVSSISSSSSYIYYADSVKGRFTISRDNAKNSLYLQMNSLRAEDTAVYYCARVRGHRYYYDSSGYYSSDYYYYYGMDVWGQGTTVTVSS
VL: DIQLTQSPSSVSASVGDRVTITCRASQVISSWLAWYQQKPGKAPKLLISTASSLQSGVPPRFSGSGSGTDFTLTITSLQPEDFATYYCQQANSFPLTFGQGTKVEIK
B2: Fab 2C3 (Fab, V domains shown)
VH: QVQLVQSGGGVVQPGRSLRLSCAASGFTFSSYAMHWVRQAPGKGLEWVAVISYDGSNKYYADSVKGRFTISRDNSKNTLYLQMNSLRAEDTAVYYCARDRSFWSGYYIINYYYYGMDVWGQGTTVTVSS
VL: DVVMTQSPLSLPVTPGEPASISCRSSQSLLHSDGNNYLDWYLQKPGQSPQLLIYLGSNRASGVPDRFSGSGSGTDFTLKISRVEPEDVGVYYCMQALHIPLTFGQGTRLEIK
B3: Fab 2E4 (Fab, V domains shown)
VH: EVQLVESGAEVKKPGASVKVSCKASGYTFTSYYMHWVRQAPGQGLEWMGIINPSGGSTSYAQKFQGRVTMTRDTSTSTVYMELSSLRSEDTAVYYCAREGDNYYGDAFDIWGQGTMVTVSS
VL: EIVLTQSPATLSLSPGERATLSCRASQSVSSYLAWYQQKPGQAPRLLIYDASNRATGIPARFSGSGSGTDFTLTISSLEPEDFAVYYCQQRSNWPPSYTFGQGTKLEIK
B4: Fab 1F11 (Fab, V domains shown)
VH: QLQLQESGPGLVKPSETLSLTCTVSGVSISSRSGHWGWVRQPPGKGLEWIGSISYSGSTYYNPSLKSRVTISVDTSKNQLSLKLSSVTAADTAVYYCARESHPAAALVGWGQGTLVTVSS
VL: ETTLTQSPGTLSLSPGERATLSCRASQSIINSHLAWYQQKPGQAPRLLIYGASSRATGIPDRFSGGGSGTDFTLTITRLETEDFALYFCQQYGTSPLTFGGGTRVETK

Legend:
[1] = molecular target: RTL342m (α1β1 domains of DR2 linked to mouse MOG-35-55 peptide) (human HLA-DR2 (DRA*01:01/DRB1*15:01) …, UniProt Q61885;IMGT); assay: ELISA
[2] = molecular target: T1, RTL340 (DR2/MBP-85-99), biotinylated version (human, DRA*01:01/DRB1*15:01, biotin on the Bir-A tag); assay: ELISA
T1 chain 1: ENPVVHFFKNIVTPR
T1 chain 2: not shown
T1 chain 3: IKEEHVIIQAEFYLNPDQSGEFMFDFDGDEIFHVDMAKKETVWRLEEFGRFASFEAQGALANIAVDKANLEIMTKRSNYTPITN

Row | Binder | fold reduction in ELISA binding to RTL342m compared to RTL1000 [1] [fold] | binding result [2]
1 | B1 | 5 | 
2 | B2 |  | no binding
3 | B3 | 2 | 
4 | B4 | 5 | 
